Data on 1 substance can be found in PMC3757403.

For the assay, the target named is de2-7EGFR (UniProt P00533). Briefly: non-reducing SDS-PAGE and Western blot of disulfide-bonded dimers; cells washed and lysed in RIPA buffer with 10 mM iodoacetamide; non-reducing Laemmli buffer; blot probed with mAb806.

With “de2-7EGFR (from UniProt P00533 25-1210) (receptor)”, the dimer as proportion of the total species turned out to be 25%.
